Reference: doi:10.1101/2024.06.04.597308

Biological target: 3β-OH-Δ5-6-cholesterol-5β-reductase (5βChR) from Limosilactobacillus fermentum NKN51 (Limosilactobacillus fermentum NKN51)
Experiment: SEC

stoichiometry N: 2
Substance: 3β-OH-Δ5-6-cholesterol-5β-reductase (5βChR) from Limosilactobacillus fermentum NKN51 (enzyme)
